Here are results for two substances from article PMC7790537.

Experiment [1] has as its target recombinant trimeric HA of A/New Caledonia/20/1999 (H1N1) (influenza A virus A/New Caledonia/20/1999 (H1N1)) (UniProt Q6WG00).
Experiment [2] has as its target recombinant trimeric HA of A/Victoria/210/2009 (H3N2) (influenza A virus A/Victoria/210/2009 (H3N2)).

Consider “Fab-deficient (ΔFab) IgA1 monomer (domain or fragment)”, for which, in experiment [1], the HI activity, minimum HI concentration, NC20 virus was above 500 µg/mL. In experiment [2], the HI activity, minimum HI concentration, Vic210 virus was determined as 794 µg/mL and the NT activity, minimum virus-neutralizing concentration, Vic210 virus is above 500 µg/mL.

Regarding “Fab-deficient (ΔFab) IgA2m2 monomer (domain or fragment)”, the HI activity, minimum HI concentration, NC20 virus in experiment [1] was above 500 µg/mL. Moreover, in experiment [2], the HI activity, minimum HI concentration, Vic210 virus is 500 µg/mL and the NT activity, minimum virus-neutralizing concentration, Vic210 virus is above 500 µg/mL.
